Assay results taken from article PMC7176092, “Development of the first in vivo GPR17 ligand through an iterative drug discovery pipeline: A novel disease-modifying strategy for multiple sclerosis” (PLoS ONE, 2020).

What was measured:
ADR1A = target: T1, ADR1A (Homo sapiens, UniProt P35348); experiment: Binding assay ADR1A; conditions: reference compound
T1 construct: Eurofins Cerep (external service)
T1 sequence (P35348 1-466): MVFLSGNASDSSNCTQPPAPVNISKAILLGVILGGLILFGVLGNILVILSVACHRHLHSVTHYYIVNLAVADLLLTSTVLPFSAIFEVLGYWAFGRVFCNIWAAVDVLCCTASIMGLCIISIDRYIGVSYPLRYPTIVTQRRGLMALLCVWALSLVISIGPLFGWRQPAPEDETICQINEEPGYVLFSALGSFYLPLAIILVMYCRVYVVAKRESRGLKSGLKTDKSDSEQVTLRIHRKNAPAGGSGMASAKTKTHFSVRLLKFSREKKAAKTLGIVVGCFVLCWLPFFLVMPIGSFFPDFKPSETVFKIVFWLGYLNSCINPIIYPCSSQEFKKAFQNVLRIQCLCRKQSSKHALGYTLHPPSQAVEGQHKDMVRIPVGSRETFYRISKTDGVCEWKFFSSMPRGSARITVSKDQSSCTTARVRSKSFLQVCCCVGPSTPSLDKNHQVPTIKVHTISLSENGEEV

CXCR5 = target: T2, CXCR5 (Homo sapiens, UniProt P32302); experiment: Cellular functional assay CXCR5; conditions: reference agonist
T2 sequence (P32302 1-372): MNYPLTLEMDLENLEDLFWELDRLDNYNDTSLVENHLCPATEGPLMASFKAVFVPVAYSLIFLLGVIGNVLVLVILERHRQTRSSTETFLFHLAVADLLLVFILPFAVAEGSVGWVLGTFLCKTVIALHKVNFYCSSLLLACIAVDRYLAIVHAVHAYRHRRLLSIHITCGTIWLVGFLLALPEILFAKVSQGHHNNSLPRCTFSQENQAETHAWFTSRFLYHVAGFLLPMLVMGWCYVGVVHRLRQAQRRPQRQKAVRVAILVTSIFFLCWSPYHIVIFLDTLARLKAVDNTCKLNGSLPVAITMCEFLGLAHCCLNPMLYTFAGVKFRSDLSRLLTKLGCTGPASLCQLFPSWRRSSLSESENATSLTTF

CXCR3 = target: T3, CXCR3 (Homo sapiens, UniProt P49682); experiment: Cellular functional assay CXCR3; conditions: reference agonist
T3 sequence (P49682 1-368): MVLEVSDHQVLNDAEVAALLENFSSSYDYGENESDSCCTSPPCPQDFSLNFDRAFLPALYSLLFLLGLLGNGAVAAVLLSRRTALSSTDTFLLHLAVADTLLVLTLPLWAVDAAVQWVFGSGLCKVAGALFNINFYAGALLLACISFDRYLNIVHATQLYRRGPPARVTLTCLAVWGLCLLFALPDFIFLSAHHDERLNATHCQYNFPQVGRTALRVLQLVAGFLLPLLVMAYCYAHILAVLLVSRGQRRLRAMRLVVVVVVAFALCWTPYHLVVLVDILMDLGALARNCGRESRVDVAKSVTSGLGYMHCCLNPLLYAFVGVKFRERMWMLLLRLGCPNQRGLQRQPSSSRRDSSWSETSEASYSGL

CXCR6 = CXCR6 (Homo sapiens, UniProt O00574); experiment: Cellular functional assay CXCR6; conditions: reference agonist
Chain of CXCR6 (O00574 whole entry): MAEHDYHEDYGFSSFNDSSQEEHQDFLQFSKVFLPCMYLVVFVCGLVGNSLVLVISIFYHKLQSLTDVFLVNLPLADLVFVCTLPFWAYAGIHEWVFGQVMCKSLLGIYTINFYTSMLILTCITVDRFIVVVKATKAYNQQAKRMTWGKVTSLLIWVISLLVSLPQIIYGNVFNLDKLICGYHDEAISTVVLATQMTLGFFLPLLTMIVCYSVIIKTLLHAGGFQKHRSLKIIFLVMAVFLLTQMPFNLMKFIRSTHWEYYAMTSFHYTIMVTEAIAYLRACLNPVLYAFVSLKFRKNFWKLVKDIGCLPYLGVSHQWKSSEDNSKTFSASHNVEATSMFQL

CCR9 = target: T4, CCR9 (Homo sapiens, UniProt P51686); experiment: Cellular functional assay CCR9; conditions: reference agonist
T4 sequence (P51686 1-369): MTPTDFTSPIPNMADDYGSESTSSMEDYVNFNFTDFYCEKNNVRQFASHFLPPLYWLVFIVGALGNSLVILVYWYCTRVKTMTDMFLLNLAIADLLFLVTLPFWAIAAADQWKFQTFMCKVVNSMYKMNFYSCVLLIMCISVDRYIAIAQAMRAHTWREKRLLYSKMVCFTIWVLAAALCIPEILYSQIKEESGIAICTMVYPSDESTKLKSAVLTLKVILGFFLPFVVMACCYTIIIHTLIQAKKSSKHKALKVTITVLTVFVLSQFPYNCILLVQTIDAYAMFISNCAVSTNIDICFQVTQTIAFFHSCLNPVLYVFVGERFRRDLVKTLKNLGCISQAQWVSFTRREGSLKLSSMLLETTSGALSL

CCR4 = target: T5, CCR4 (Homo sapiens, UniProt P51679); experiment: Cellular functional assay CCR4; conditions: reference agonist
T5 sequence (P51679 1-360): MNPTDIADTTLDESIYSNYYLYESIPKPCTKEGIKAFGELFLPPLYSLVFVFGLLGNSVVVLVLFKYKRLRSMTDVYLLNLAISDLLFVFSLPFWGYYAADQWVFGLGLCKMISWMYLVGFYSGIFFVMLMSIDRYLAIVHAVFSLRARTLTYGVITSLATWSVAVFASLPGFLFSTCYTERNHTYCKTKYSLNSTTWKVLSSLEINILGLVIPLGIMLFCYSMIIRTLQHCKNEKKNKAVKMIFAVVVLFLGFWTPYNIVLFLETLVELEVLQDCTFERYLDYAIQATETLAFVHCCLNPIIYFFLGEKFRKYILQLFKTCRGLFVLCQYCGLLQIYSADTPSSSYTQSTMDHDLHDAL

CCR10 = target: T6, CCR10 (Homo sapiens, UniProt P46092); experiment: Cellular functional assay CCR10; conditions: reference agonist
T6 sequence (P46092 1-362): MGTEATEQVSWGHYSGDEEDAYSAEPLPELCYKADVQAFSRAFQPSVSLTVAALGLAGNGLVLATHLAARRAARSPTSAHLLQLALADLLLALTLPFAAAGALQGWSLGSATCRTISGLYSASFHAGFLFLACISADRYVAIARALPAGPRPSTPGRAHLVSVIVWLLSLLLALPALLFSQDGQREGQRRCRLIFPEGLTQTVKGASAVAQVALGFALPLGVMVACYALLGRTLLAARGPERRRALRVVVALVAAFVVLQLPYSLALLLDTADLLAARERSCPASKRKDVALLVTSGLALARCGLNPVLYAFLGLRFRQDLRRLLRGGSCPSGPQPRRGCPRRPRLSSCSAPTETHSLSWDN

CCR8 = CCR8 (Homo sapiens, UniProt P51685); experiment: Cellular functional assay CCR8; conditions: reference agonist
Chain of CCR8 (P51685 whole entry): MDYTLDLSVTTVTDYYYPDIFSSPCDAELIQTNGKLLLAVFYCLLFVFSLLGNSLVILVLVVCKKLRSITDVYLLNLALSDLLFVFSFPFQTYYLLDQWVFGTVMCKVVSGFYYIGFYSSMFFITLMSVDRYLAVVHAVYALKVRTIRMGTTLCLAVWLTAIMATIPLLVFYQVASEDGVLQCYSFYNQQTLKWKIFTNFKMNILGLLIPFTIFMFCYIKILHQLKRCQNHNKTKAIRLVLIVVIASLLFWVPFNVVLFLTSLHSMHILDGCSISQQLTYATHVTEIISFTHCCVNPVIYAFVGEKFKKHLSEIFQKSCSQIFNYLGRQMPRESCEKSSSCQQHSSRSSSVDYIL

CXCR4 = CXCR4 (Homo sapiens, UniProt P61073); experiment: Cellular functional assay CXCR4; conditions: reference antagonist
Chain of CXCR4 (P61073 whole entry): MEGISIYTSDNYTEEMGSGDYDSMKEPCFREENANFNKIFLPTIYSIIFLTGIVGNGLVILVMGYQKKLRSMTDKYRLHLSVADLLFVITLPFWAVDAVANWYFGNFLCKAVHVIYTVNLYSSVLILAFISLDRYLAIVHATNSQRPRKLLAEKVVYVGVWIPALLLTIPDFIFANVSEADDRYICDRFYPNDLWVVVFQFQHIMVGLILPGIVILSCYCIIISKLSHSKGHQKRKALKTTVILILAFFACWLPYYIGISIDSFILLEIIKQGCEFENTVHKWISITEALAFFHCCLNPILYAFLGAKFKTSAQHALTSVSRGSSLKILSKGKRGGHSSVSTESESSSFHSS

Molecule: COc1cccc(OC)c1OCCNCC1COc2ccccc2O1 (stereo not drawn) [WB 4101, reference compound]
- IC50 (ADR1A): 0.39 nM

Molecule: CXCL13/BLC/BCA-1: chemokine, reference agonist for CXCR5
- EC50 (CXCR5): 3.8 nM

Molecule: I-TAC: chemokine, reference agonist for CXCR3
- EC50 (CXCR3): 2.3 nM

B1: CXCL16: chemokine, reference agonist for CXCR6 (protein, UniProt Q9H2A7 30-254, looked up)
C-X-C motif chemokine 16: NEGSVTGSCYCGKRISSDSPPSVQFMNRLRKHLRAYHRCLYYTRFQLLSWSVCGGNKDPWVQELMSCLDLKECGHAYSGIVAHQKHLLPTSPPISQASEGASSDIHTPAQMLLSTLQSTQRPTLPVGSLSSDKELTRPNETTIHTAGHSLAAGPEAGENQKQPEKNAGPTARTSATVPVLCLLAIIFILTAALSYVLCKRRRGQSPQSSPDLPVHYIPVAPDSNT
- EC50 (CXCR6): 1.6 nM

B2: CCL25: chemokine, reference agonist for CCR9 (protein, UniProt O15444 24-150, looked up)
C-C motif chemokine 25: QGVFEDCCLAYHYPIGWAVLRRAWTYRIQEVSGSCNLPAAIFYLPKRHRKVCGNPKSREVQRAMKLLDARNKVFAKLHHNTQTFQAGPHAVKKLSSGNSKLSSSKFSNPISSSKRNVSLLISANSGL
- EC50 (CCR9): 2 nM

B3: TARC: chemokine, reference agonist for CCR4 (protein, UniProt Q92583 24-94, looked up)
C-C motif chemokine 17: ARGTNVGRECCLEYFKGAIPLRKLKTWYQTSEDCSRDAIVFVTVQGRAICSDPNNKRVKNAVKYLQSLERS
- EC50 (CCR4): 0.34 nM

B4: CTACK/CCL27: chemokine, reference agonist for CCR10 (protein, UniProt Q9Y4X3 25-112, looked up)
C-C motif chemokine 27: FLLPPSTACCTQLYRKPLSDKLLRKVIQVELQEADGDCHLQAFVLHLAQRSICIHPQNPSLSQWFEHQERKLHGTLPKLNFGMLRKMG
- EC50 (CCR10): 5 nM

B5: I-309: chemokine, reference agonist for CCR8 (protein, UniProt P22362 24-96, looked up)
C-C motif chemokine 1: KSMQVPFSRCCFSFAEQEIPLRAILCYRNTSSICSNEGLIFKLKRGKEACALDTVGWVQRHRKMLRHCPSKRK
- EC50 (CCR8): 0.72 nM

B6: MIP-II: reference antagonist for CXCR4 (protein)
chain: LGASWHRPDKCCLGYQKRPLPQVLLSSWYPTSQLCSKPGVIFLTKRGRQVCADKSKDWVKKLMQQLPVTAR
- IC50 (CXCR4): 150 nM
